# Source: patent US20210063414A1, “METHODS FOR PREVENTING AND/OR TREATING BONE LOSS CONDITIONS BY MODULATING IRISIN” (Dana-Farber Cancer Institute, Inc., priority 2018, published 2021)
# T1: MLO-Y4 cell surface proteins (Mus musculus, UniProt E9PW83)
# T1 construct: endogenous in cells; host or cells: MLO-Y4
# T1 sequence (E9PW83 1-1143): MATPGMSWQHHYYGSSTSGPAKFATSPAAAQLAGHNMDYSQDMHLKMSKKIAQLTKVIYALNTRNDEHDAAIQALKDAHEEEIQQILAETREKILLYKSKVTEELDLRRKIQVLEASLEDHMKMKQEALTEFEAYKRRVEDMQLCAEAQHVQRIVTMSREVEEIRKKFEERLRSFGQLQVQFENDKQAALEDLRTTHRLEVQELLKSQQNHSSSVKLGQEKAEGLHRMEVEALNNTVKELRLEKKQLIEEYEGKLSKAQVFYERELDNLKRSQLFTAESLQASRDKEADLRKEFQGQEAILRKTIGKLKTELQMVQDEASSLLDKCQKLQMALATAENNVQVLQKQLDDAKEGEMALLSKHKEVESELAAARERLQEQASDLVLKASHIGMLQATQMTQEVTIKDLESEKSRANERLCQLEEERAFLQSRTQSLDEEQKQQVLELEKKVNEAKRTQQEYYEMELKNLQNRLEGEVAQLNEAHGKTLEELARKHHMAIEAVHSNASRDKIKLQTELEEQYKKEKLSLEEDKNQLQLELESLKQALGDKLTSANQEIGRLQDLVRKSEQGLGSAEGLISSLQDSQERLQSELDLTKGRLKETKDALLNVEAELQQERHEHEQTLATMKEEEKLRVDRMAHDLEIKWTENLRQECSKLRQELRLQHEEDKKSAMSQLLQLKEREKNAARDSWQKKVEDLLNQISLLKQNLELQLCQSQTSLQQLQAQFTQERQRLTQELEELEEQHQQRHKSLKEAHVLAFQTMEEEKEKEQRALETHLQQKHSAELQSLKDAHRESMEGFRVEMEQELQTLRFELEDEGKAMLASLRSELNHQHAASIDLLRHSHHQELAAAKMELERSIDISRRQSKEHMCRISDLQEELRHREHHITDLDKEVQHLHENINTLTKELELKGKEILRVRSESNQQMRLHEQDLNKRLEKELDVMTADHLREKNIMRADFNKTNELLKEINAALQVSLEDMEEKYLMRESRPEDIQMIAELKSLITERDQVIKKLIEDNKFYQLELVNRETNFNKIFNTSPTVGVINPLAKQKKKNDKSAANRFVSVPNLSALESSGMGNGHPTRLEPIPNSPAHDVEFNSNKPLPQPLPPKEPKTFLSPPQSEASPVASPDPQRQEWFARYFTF
# T2: MLO-Y4 cell surface proteins (Mus musculus, UniProt Q9CYR0)
# T2 construct: endogenous in cells; host or cells: MLO-Y4
# T2 sequence (Q9CYR0 17-152): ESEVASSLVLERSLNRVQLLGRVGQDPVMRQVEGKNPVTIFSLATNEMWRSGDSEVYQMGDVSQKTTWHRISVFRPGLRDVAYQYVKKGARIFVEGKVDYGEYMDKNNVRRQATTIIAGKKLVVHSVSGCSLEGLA
# B1: irisin: secreted cleaved form of FNDC5; recombinant human/mouse irisin with C-terminal his tag produced in HEK293 cells (protein)
# chain: DSPSAPVNVTVRHLKANSAVVSWDVLEDEVVIGFAISQQKKDVRMLRFIQEVNTTTRSCALWDLEEDTEYIVHVQAISIQGQSPASEPVLFKTPREAEKMASKNKDEVTMKE
# modifications: left off: small tags and cut ends
# notes: secreted cleaved form of FNDC5; recombinant human/mouse irisin with C-terminal his tag produced in HEK293 cells
# Key:
# [1] = biological target: T1, MLO-Y4 cell surface proteins; assay: Crosslinking/co-immunoprecipitation/mass spectrometry (TMT quantitative proteomics) to identify irisin receptors; format: binding; conditions: co-precipitated protein Fam184a (E9PW83_MOUSE)
# How it was run: (§1)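 Mouse MLO-Y4 cells were switched to serum-free FreeStyle medium for 4 h, chilled, then exposed to 10 nM His-tagged irisin (or adipsin as control) for 20 min. Cells were crosslinked with 1.5 mM DTSSP (30 min, ice), and bound proteins were pulled down on Ni-NTA and eluted with 250 mM imidazole. Eluates were separated by SDS-PAGE, trypsin-digested in gel, TMT 6-plex labelled and quantified by MS3-based LC-MS/MS on an Orbitrap Fusion Lumos.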
# [2] = biological target: T2, MLO-Y4 cell surface proteins; assay: as above; format: binding; conditions: co-precipitated protein Ssbp1 (SSBP_MOUSE)
# How it was run: as §1
molecule,measurement,setting,value
B1,TMT signal-to-noise ratio,[1],8.102
same,irisin/adipsin TMT signal-to-noise ratio,[1],0.009
same,TMT signal-to-noise ratio,[2],244.754
same,irisin/adipsin TMT signal-to-noise ratio,[2],0.566
